Data set [1] concerns BxPC-3 cells. Description: In vitro cell blocking assay, BxPC-3. To be noted: 1 h, 37 °C, n = 3. The class given is cell-based. How it is done:
Cell binding and internalization assay. Binding and internalization were determined as previously described. In brief, bovine serum albumin (BSA, 0.5% w/v in PBS) was used to pretreat the assay tubes to prevent non-specific binding. Aliquots of [64Cu]2 or [ 64Cu]PDC-1 (≤1 μL, 7.4-18.5 KBq in 50 μL PBS, pH = 7.4) were added to a cell suspension (3.75 × 10 6 cells in 50 μL serum free medium), incubated for 1 h at 37 °C, and gently agitated every 5 minutes (n = 3/cell line/compound). The cells were pelleted by centrifugation at 200×g for 3 min and the supernatant collected. The cell pellet was washed with 0.5 mL serum free medium and the wash medium combined with the original supernatant. […] The fraction of bound radioactivity was determined with a γ-counter (by measuring cell pellet and combined supernatants). To determine the fraction of internalized radioactivity, the cells were re-pelleted, and re-suspended in acidic wash buffer (0.2 M sodium acetate, 0.5 M sodium chloride, pH = 2.5, 300 μL, 4 °C, 5 min) to release surface bound activity, followed by a wash with PBS (300 μL). The internalized fraction was determined with a γ-counter (cell pellet vs. radioactivity released into supernatant). A Wizard 1470 or Wizard 2 2470 automatic γ-counter (Perkin-Elmer, Waltham, MA) was used to measure radioactivity samples. […]
Figure S3. […] Data are expressed as mean ± SD. […]

In data set [2] the test system is MDA-MB-435 breast cancer xenograft tumor model. The conditions noted are these: copper-64 labeled; 4 h; cited from earlier work. From the text:
(§1) Wang et al. described a similar radiolabeling approach with copper-64 to imag ...

In data set [3] the test system is glioblastoma U87MG xenograft mouse model. To be noted: cited from earlier work.
Description: as §1

Ends that are not written are not given here.

Consider `CC[C@H](C)[C@@H]([C@@H](CC(=O)N1CCC[C@H]1[C@H](OC)[C@@H](C)C(=O)N[C@H](C)[C@@H](O)c1ccccc1)OC)N(C)C(=O)[C@@H](NC(=O)[C@H](C(C)C)N(C)C(=O)OCc1ccc(NC(=O)[C@H](CCCNC(N)=O)NC(=O)[C@@H](NC(=O)CCOCCOCCNC(=O)CCN2C(=O)CC(SC[C@H](NC(=O)CN3CCN(CC(=O)O)CCN(CC(=O)O)CCN(CC(=O)O)CC3)C(=O)NCCOCCOCCOCCOCCOCCOCCOCCOCCOCCOCCOCCOCCOCCOCCOCCOCCOCCOCCOCCOCCOCCOCCOCCOCCOCCOCCOCCOCCC(=O)N[C@@H](CC(N)=O)C(=O)N[C@@H](C)C(=O)N[C@H](C(=O)N3CCC[C@H]3C(=O)N[C@@H](CC(N)=O)C(=O)N[C@@H](CC(C)C)C(=O)N[C@@H](CCCNC(=N)N)C(=O)NCC(=O)N[C@@H](CC(=O)O)C(=O)N[C@@H](CC(C)C)C(=O)N[C@@H](CCC(N)=O)C(=O)N[C@H](C(=O)N[C@@H](CC(C)C)C(=O)N[C@@H](C)C(=O)N[C@@H](CCC(N)=O)C(=O)N[C@@H](CCCNC(=N)N)C(=O)N[C@H](C(=O)N[C@@H](C)C(=O)N[C@@H](CCCNC(=N)N)C(=O)N[C@H](C(=O)NCCOCCOCCOCCOCCOCCOCCOCCOCCOCCOCCOCCOCCOCCOCCOCCOCCOCCOCCOCCOCCOCCOCCOCCOCCOCCOCCOCCOCCC(N)=O)[C@@H](C)O)C(C)C)C(C)C)C(C)C)C2=O)C(C)C)cc1)C(C)C` (stereo partly shown) [DOTA-PDC-1], for which, in data set [1], the “Concentration of non-radioactive DOTA-PDC-1 required to block [64Cu]PDC-1 binding” value is 80 to 160 nM.

On to “CDCRGDCFC (also: bicyclic or more (positions not given here)) [TNF-PDC]”, for which, in data set [2], the Tumor accumulation is reported as 3.94 ± 0.48 % ID/g. Moreover, in data set [3] (20 h, model not stated), the Liver accumulation is recorded as 16.22 ± 1.46 % ID/g. Besides, in data set [3] (copper-64 labeled, 4 h), the Tumor uptake is 8.11 ± 0.88 % ID/g.
